Measured values reported in patent US20240309360A1, “TRANS-ACTIVATORS AND METHODS AND USE THEREOF” (THE GOVERNING COUNCIL OF THE UNIVERSITY OF TORONTO, priority 2021, published 2024).

B1: SPDYC: Spy1/RINGO family protein (protein, listed as Homo sapiens)
chain: MLWAIPELGSPCPISISYEMSDSQDPTTSPVVTTQVELGGCSRQGGGNGFLRFRQHQEVQAFLSLLEDSFVQEFLSKDPCFQISDKYLLAMVLVYFQRAHLKLSEYTHSSLFLALYLANDMEEDLEGPKCEIFPWALGKDWCLRVGKFLHQRDKLWARMGFRAVVSRQCCEEVMAKEPFHWAWTRDRRPHHGGVQRVCPQVPVRLPRGPGLSPPHCSPCGLPQHCSSHLLKPVSSKCPSLTSECHRPPSQNYLSRVKNAWGGDFLIVLPPQMQLEPGTYSLRIFPKPPARPGH
B2: C3orf62-Cterm: C-terminal fragment of C3orf62 fused to SRF in the fusion (protein)
chain: AAVPCAPENENPAFATNHAPVNAKPHALCPERKPLTSKENVLMHSSILAPERESWRTAGEGENWRKENLRKDMERDLKADSNMPLNNSSQEVTKDLLDMIDHTSIRTIEELAGKIEFENELNHMCGHCQDSPFKEEAWALLMDKSPQKATDADPGSLKQAFDDHNIVETVLDLEEDYNVMTSFKYQIE
modifications: left off: things letters cannot carry; small tags and cut ends
notes: C-terminal fragment of C3orf62 fused to SRF in the fusion
B3: RYBP: YAF2_RYBP domain of RYBP (protein, listed as Homo sapiens)
chain: IQSANATTKTSETNHTSRPRLKNVDRSTAQQLAVTVGNVTVIITDFKEKTRSSSTSSSTVTSSAGSEQQNQS
B4: C3orf62: full-length C3orf62 protein (protein)
chain: MHYIKTWSLLGEMSEKLRRCRKELTAAIDRAFEGVSYSQECTGQQRLELSAAPLSFSLPVHRLLCRRHPLAACSSAAPFAAVPCAPENENPAFATNHAPVNAKPHALCPERKPLTSKENVLMHSSILAPERESWRTAGEGENWRKENLRKDMERDLKADSNMPLNNSSQEVTKDLLDMIDHTSIRTIEELAGKIEFENELNHMCGHCQDSPFKEEAWALLMDKSPQKATDADPGSLKQAFDDHNIVETVLDLEEDYNVMTSFKYQIE
modifications: left off: things letters cannot carry; small tags and cut ends
notes: full-length C3orf62 protein
B5: CBX6: CBX-C domain of CBX6 (protein, listed as Homo sapiens)
chain: GASSEPEAGDWRPEMSPCSNVVVTDVTSNLLTVTIKEFCNPEDFEKVAAGVAGAAGGGGSIGASK
B6: SRF: Serum Response Factor (protein)
chain: MLPTQAGAAAALGRGSALGGSLNRTPTGRPGGGGGTRGANGGRVPGNGAGLGPGRLEREAAAAAATTPAPTAGALYSGSEGDSESGEEEELGAERRGLKRSLSEMEIGMVVGGPEASAAATGGYGPVSGAVSGAKPGKKTRGRVKIKMEFIDNKLRRYTTFSKRKTGIMKKAYELSTLTGTQVLLLVASETGHVYTFATRKLQPMITSETGKALIQTCLNSPDSPPRSDPTTDQRMSATGFEETDLTYQVSESDSSGETKDTLKPAFTVTNLPGTTSTIQTAPSTSTTMQVSSGPSFPITNYLAPVSASVSPSAVSSANGTVLKSTGSGPVSSGGLMQLPTSFTLMPGGAVAQQVPVQAIQVHQAPQQASPSRDSSTDLTQTSSSGTVTLPATIMTSSVPTTVGGHMMYPSPHAVMYAPTSGLGDGSLTVLNAFSQAPSTMQVSHSQVQEPGGVPQVFLTASSGTVQIPVSAVQLHQMAVIGQQAGSSSNLTELQVVNLDTAHSTKSE
modifications: left off: things letters cannot carry; small tags and cut ends
notes: Serum Response Factor

Key:
[1] = test system: EGFP reporter (7×TetO array, basal CMV promoter) in HEK293T reporter cell line; experiment: Arrayed recruitment assay, PYL1 fusions individually recruited to reporter via ABI1-dCas9 with ABA; assay type: cell-based, human; conditions: PYL1 fusion, ABA 48 hours, flow cytometry
Text: Treatment of cells with abscisic acid (ABA) induces an interaction between ABI1 and PYL1, thereby recruiting the potential transcriptional activator to a specific genomic locus defined by the guide RNA (gRNA). As a reporter, a HEK293T cell line that contains a stably integrated construct with a 7×TetO array and a basal CMV promoter driving the expression of EGFP was used (Gao et al., 2016). A monoclonal cell line that expresses ABI1-dCas9 and a single gRNA targeting TetO was generated by lentiviral infection.
Arrayed recruitment assays. Reporter cells stably co-expressing ABI-dCas9 and TetO gRNA were seeded either on 48-well or 96-well plates (Sarstedt) to reach 50-70% confluency on the day of transfection. 150 ng of each construct to be tested was transfected with polyethylenimine (PEI) at a ratio of 0.6 μl reagent. The day after transfection, recruitment was induced by treatment with ABA (100 μM). […] Inhibitors were dissolved in DMSO to a stock concentration of 10 mM. The final concentrations used were 100 nM for flavopiridol, 300 nM for JQ1, 1 μM for A-485, 2.5 μM for CX-4945 and 3 μM for AZ191. All inhibitors were a kind gift from the Structural Genomics Consortium (SGC). 48 hours after induction, cells were dissociated and resuspended in flow buffer using a liquid handing robot (TECAN) and analyzed by LSR Fortessa (BD). Cells were gated on high EBFP2 and RFP as a measure of gRNA and transfection control, respectively. Flow cytometry data was analyzed using FlowJo (v10).

[2] = test system: NIH3T3 cells gene expression; experiment: RNA sequencing of NIH-3T3 cells with doxycycline-inducible EGFP-tagged constructs; assay type: cell-based, mouse; conditions: GFP-tagged
Text: The SRF/TCF pathway, which is regulated by MAP kinase signaling, regulates the expression of immediate-early genes (Gualdrini et al., 2016), whereas the actin-Rho signaling dependent SRF/MRTF pathway targets genes involved in cell motility and adhesion (Miralles et al., 2003). To test if SRF-C3orf62 can regulate target genes of both pathways, stable doxycycline-inducible NIH3T3 cell lines stably expressing SRF, C3orf62, SRF-C3orf62 and Nanoluc fused to GFP were generated. Transgene expression was induced with doxycycline for 24 hours and changes in gene expression were analyzed by RNA-seq. […] These signatures are consistent with the oncogenic nature of the SRF-C3orf62 fusion. […] In contrast, many well-characterized immediate-early target genes of SRF/TCF such as FOS, EGR1, or EGR2 were not affected by ectopic SRF-C3orf62 expression (FIG. 5H).
RNA sequencing and analysis. NIH-3T3 cells with stable integrations of SRF, C3orf62, SRF-C3orf62 or Nanoluc tagged at the C-terminus with EGFP were induced with 1 μg/mL doxycycline for 24 hours. […] Reads were aligned to the Gencode mouse primary assembly (GRCm39) with STAR aligner v2.7.8a. […] Changes in gene expression compared to cells expressing Nanoluc-EGFP were quantified using the edgeR package (Robinson et al., 2010).

[3] = test system: serum response element reporter in NIH3T3 cells; experiment: SRF reporter assay (SRE-Firefly luciferase); assay type: cell-based, mouse; conditions: NIH3T3 fibroblasts, 3×FLAG tagged constructs, no cofactors
Protocol: SRF functions together with either ternary complex factors (TCFs; e.g. ELK1) or myocardin-related transcription factors (MRTFs; e.g. MAL) to regulate target gene expression (Buchwalter et al., 2004; Olson and Nordheim, 2010). […] To test this further, the activity of different constructs was assayed in NIH3T3 fibroblasts using a luciferase-based serum response element reporter (Vartiainen et al., 2007).
SRF reporter assay. 30,000 NIH-3T3 cells on 24-well plates were transfected with 8 ng SRF reporter (p3DA.luc), 20 ng reference reporter (pcDNA3.1-Nanoluc-3×FLAG-V5) and 50 ng 3×FLAG tagged constructs (Addgene #87063). Transfection was carried out using Lipofectamine 3000 reagent (Thermo Fisher Scientific, L3000001) according to the manufacturer's protocols. Luciferase constructs were a kind gift from Dr. Maria Vartiainen (University of Helsinki). Cells were maintained in low-serum media (0.5% BCS) for 18 hours and stimulated for 7 hours (15% BCS), after which luciferase activity was measured. Firefly luciferase was normalized to Renilla luciferase activity using data from four independent transfections.

Molecule | activation of the EGFP reporter when individually tested [1] | effects on the transcriptome compared to Nanoluc [2] | activation of serum response element luciferase reporter [3]
B1 | inactive in the recruitment assay |  | 
B2 | strongly activated the GFP reporter |  | 
B3 | robustly activated the reporter |  | 
B4 |  | very limited or no effects on the transcriptome | did not activate the reporter
B5 | activated the reporter weakly |  | 
B6 |  | very limited or no effects on the transcriptome | did not activate the reporter
